Assay results as given in publication PMC12420816 (Nature Communications, 2025).

Legend:
[1] = target: SARS-CoV-2 nsp7-11 polyprotein, tag-free with native (authentic) termini (SARS-CoV-2); assay: native MS
native MS = target: the molecule itself; assay: native MS

Row | Molecule | stoichiometry N [1] | stoichiometry N (native MS)
1 | SARS-CoV-2 nsp7-11 polyprotein, tag-free with native (authentic) termini (domain or fragment) | 2 | 
2 | MERS-CoV mature nsp7, released from nsp7-11 by SARS-CoV-2 M^pro (natural protein) SKLTDLKCTSVVLLSVLQQLHLEANSRAWAFCVKCHNDILAATDPSEAFEKFVSLFATLMTFSGNVDLDALASDIFDTPSVLQ |  | 2
